The target of the assay is SARS-CoV-2 스파이크 D19 (VSV 슈도바이러스) (SARS-CoV-2) (UniProt P0DTC2). The assay is described as follows: cell-based or functional assay.

For the substance S2E12-LS (antibody), the EC50 (neutralisation, interpolated) came to 1.4 ng/mL; the EC90 (neutralisation, interpolated) came to 11.9 ng/mL; the IC50 (neutralisation) stood at 1.4 ng/mL.
